{"source": "paper PMC9865026", "about": "(Pathogens, 2022)", "binders": {"B1": {"name": "FI6 human IgG1 with a mouse IgG1 hinge (antibody, V domains shown)", "VH": "QVQLVESGGGVVQPGRSLRLSCAASGFTFSTYAMHWVRQAPGKGLEWVAVISYDANYKYYADSVKGRFTISRDNSKNTLYLQMNSLRAEDTAVYYCAKDSQLRSLLYFEWLSQGYFDYWGQGTLVTVSS", "VL": "not shown", "notes": "also called VR-analogous human IgG1 with a mouse IgG1 hinge (FI6); copies: 2 + 2"}, "B2": {"name": "FI6 human IgG4 (antibody, V domains shown)", "VH": "B1 VH", "VL": "not shown", "notes": "also called VR-analogous human IgG4 (FI6); source: HEK-293, transfected (pTT5), purified from cell culture supernatant (MabSelect); copies: 2 + 2"}, "B3": {"name": "FI6 mouse IgG1 (antibody, V domains shown)", "VH": "B1 VH", "VL": "not shown", "notes": "also called VR-analogous mouse IgG1 (FI6); source: HEK-293, transfected (pTT5), purified from cell culture supernatant (Protein G); copies: 2 + 2"}, "B4": {"name": "FI6 mouse IgG2a (antibody, V domains shown)", "VH": "B1 VH", "VL": "not shown", "notes": "also called VR-analogous mouse IgG2a (FI6); source: HEK-293, transfected (pTT5), purified from cell culture supernatant (Protein G); copies: 2 + 2"}, "B5": {"name": "CR6261 human IgG1 possessing a mouse IgG1 hinge (antibody, V domains shown)", "VH": "EVQLVESGAEVKKPGSSVKVSCKASGGPFRSYAISWVRQAPGQGPEWMGGIIPIFGTTKYAPKFQGRVTITADDFAGTVYMELSSLRSEDTAMYYCAKHMGYQVRETMDVWGKGTTVTVSS", "VL": "QSVLTQPPSVSAAPGQKVTISCSGSSSNIGNDYVSWYQQLPGTAPKLLIYDNNKRPSGIPDRFSGSKSGTSATLGITGLQTGDEANYYCATWDRRPTAYVVFGGGTKLTVL", "notes": "also called human IgG1 with a mouse IgG1 hinge; copies: 2 + 2"}, "B6": {"name": "CR6261 human IgG4 (antibody, V domains shown)", "VH": "B5 VH", "VL": "B5 VL", "notes": "also called CR6261 IgG4; source: HEK-293, transfected (pTT5), purified from cell culture supernatant (MabSelect); copies: 2 + 2"}, "B7": {"name": "F045-092 human IgG4 (antibody, V domains shown)", "VH": "EVQLVESGAEVKKPGSSVKVSCRASGTFYKYAINWVRQAPGQGLEWMGGIIPFFGTTNYAQKFQGRLTITADGSTNTAYMQLDSLRSEDTAVYYCAGPSITESHYCLDCAAKDYYYGLDVWGQGTTVTVSS", "VL": "not shown", "notes": "also called F045-092 IgG4; source: HEK-293, transfected (pTT5), purified from cell culture supernatant (MabSelect); copies: 2 + 2"}, "B8": {"name": "F045-092 human IgG1 with a mouse IgG1 hinge (antibody, V domains shown)", "VH": "B7 VH", "VL": "not shown", "notes": "also called human IgG1 with a mouse hinge; copies: 2 + 2"}}}
{"target": "A/New Caledonia/20/1999 (NC H1N1) recombinant hemagglutinin (HA) (Influenza A virus A/New …, UniProt Q6WG00, strain)", "experiment": "ELISA", "conditions": "both partners purified"}
{"binder": "B1", "binding result": "binds"}
{"binder": "B2", "binding result": "binds"}
{"binder": "B3", "binding result": "binds"}
{"binder": "B4", "binding result": "binds"}
{"binder": "B5", "binding result": "binds"}
{"binder": "B6", "binding result": "binds"}
{"target": "A/California/07/2009 (pH1N1) recombinant hemagglutinin (HA) (Influenza A virus A/California/07/2009 …, UniProt C3W5X2, strain)", "experiment": "ELISA", "conditions": "both partners purified"}
{"binder": "B1", "binding result": "binds"}
{"binder": "B2", "binding result": "binds"}
{"binder": "B3", "binding result": "binds"}
{"binder": "B4", "binding result": "binds"}
{"binder": "B5", "binding result": "binds"}
{"binder": "B6", "binding result": "binds"}
{"target": "A/Aichi/2/68 (H3N2A) recombinant hemagglutinin (HA) (Influenza A virus A/Aichi/2/1968 …, UniProt T2HNI1)", "experiment": "ELISA", "conditions": "both partners purified"}
{"binder": "B1", "binding result": "binds"}
{"binder": "B2", "binding result": "binds"}
{"binder": "B3", "binding result": "binds"}
{"binder": "B4", "binding result": "binds"}
{"binder": "B7", "binding result": "binds"}
{"binder": "B8", "binding result": "binds"}
{"target": "A/Perth/16/2009 (H3N2P) recombinant hemagglutinin (HA) (Influenza A virus A/Perth/16/2009 (H3N2), UniProt C6KNH7, strain)", "experiment": "ELISA", "conditions": "both partners purified"}
{"binder": "B1", "binding result": "binds"}
{"binder": "B2", "binding result": "binds"}
{"binder": "B3", "binding result": "binds"}
{"binder": "B4", "binding result": "binds"}
{"binder": "B7", "binding result": "binds"}
{"binder": "B8", "binding result": "binds"}
